Publication PMC12804944 (Nature Communications, 2025)
One block for each binder: values may come before it.

Target: human FcγRIIb on Huvec-2b cells (Homo sapiens (Human)., UniProt P31994)
Assay: flow cytometry on cells

human FcγRIIb on Huvec-2b cells, sequence (P31994 43-310): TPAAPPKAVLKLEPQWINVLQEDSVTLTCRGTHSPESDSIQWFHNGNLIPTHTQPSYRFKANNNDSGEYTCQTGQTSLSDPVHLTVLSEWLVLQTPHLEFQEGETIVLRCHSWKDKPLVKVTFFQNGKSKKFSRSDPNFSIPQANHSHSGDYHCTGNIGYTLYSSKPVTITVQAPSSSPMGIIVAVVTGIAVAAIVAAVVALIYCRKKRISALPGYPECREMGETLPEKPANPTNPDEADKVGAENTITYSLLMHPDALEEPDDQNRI

binding result: binds
B1: SK4-Fc (Fc fusion, human)
VH: QVQLVETGGGVVQVGRSLRLSCAASGFTFSHYGMHWVRQAPGKGLEWVSGISWNSDRRGYADSVKGRFTISRDNTKNSLYLQMNSLRAEDTAVYYCVREFYDAFDIWGQGTMVTVSS
VL: DIQMTQSPSSLPAYVGDRVTISCRASQSIRTYLNWYRQKVGKAPELLVYDASSLHKGVPSRFSASGSGTDFSLTISSLQPEDFATYYCQQSFSSPRTFGQGTKVEIK

binding result: binds
B2: SK3-Fc (Fc fusion, human)
VH: QVLVETGGGVVQPGRSLRLSCAASGFTFSSYGMHWVRQAPGKGLEWVAVISYDGDDKDYADSVKGRFTISRDNADSSVFLQMNSLRAEDTALYYCAREGQWVGGALDIWGQGTMVTVSS
VL: DIVMTQSPSTLSASLGDTVTITCRASQSINGWLAWYQQKPGKAPNLLIYQAPNLESGVPSRFSGSGSGTEFTLTINGLQPDDFATYYCQKYDNAPHTFGQGTKVEIK
